Measurements reported in the RNAGym collection of RNA variant scans (doi:10.1021/acssynbio.7b00057).

B1: Pistol ribozyme (parent)
chain: GGGUCGUUGUUCCAUAAUCGCGUGGAUAUGGCACGCAAGUUUCUACCGGGCACCGUAAAUGUCCGACUGGAGCCGUUCGGGCGGCUAUAAACAGACCUCAGGCCCGAAGCGUGGCGGCACCUGCCGCCGGUGGUAAAAAAGAUCGGAAGAGCACACGUCU

Variants of: B1
Assay: aptazyme ON/OFF ratio, guanine; higher = stronger switching; co-transcriptional cleavage with and without guanine

Variant | aptazyme ON/OFF ratio
U8A G9C U10A U11C C12U | 1.06
U7A U8G G9C U11C C12A C13A | 1.17
U7C G9C U11C C12A C13A | 1.02
U7A U8A U10G U11A | 1.03
U7C U8G G9U U10C C12U C13U | 1.38
U7G U8C G9A U10C U11A C13U | 1.28
G9C U11A C12A C13U | 1.3
U7A U8C G9C U11C C12A C13U | 1.04
U7G U8C G9A U11C C12U | 1.65
U7G U11A C12G C13A | 1.08
U8G G9A U10A U11C C12G C13G | 1.21
U7C U8G U10C C13G | 2.71
U7G U8C G9U U10G U11A C13G | 1.07
U7G U8A G9U U10C U11G C12A | 1.06
U7C U8G G9C U10C C13A | 1.06
U7A U8C U10G C12A C13A | 1.13
U7A U8C G9C U10G U11A C13U | 1.02
U8A U10G U11G C12G C13A | 1.45
U7G U8A G9U U10A U11C C12A C13G | 1.02
G9C U10A U11G C13A | 1.21
G9C U10A U11G C13U | 1.35
U7G U8A U11A C12A | 1.25
U7A U8C U10A U11A C12U C13G | 1.33
U7C U8A G9U U10G C12G C13G | 1.12

Variant | aptazyme ON/OFF ratio
U8G G9C U10C U11C | 1.04
U7G U8A G9U U10C U11C C12G C13U | 1.06
U7G U8C U10A C12G C13G | 1.15
U8A U10A C12A C13U | 1.18
U7A U8G G9C U10C U11A C13A | 1.16
U7A G9C U11A C12G C13A | 1.04
U7A G9U U10A C12A C13G | 1.07
U8G G9U U10G U11C C12G C13G | 1.03
U7A G9U U10G U11C C12G | 1.21
U7C U8C G9U C12G C13G | 1.12
U8G G9C C12A C13U | 1.07
U7C U8C G9C U11C C12G C13G | 1.2
U7C U10A U11G C13A | 1.24
U7G U8C G9A U10G U11G C12U C13G | 1.22
U7G U8G G9U U10G U11G C12U C13G | 1.12
U7C U8A G9U U11G C12G C13U | 1.14
U7C U8G U10A U11G C13U | 1.28
U8C U10G U11G | 1.26
U8G G9A U10A U11A C13U | 1.17
U7C U8G U10C U11A C12U C13A | 1.15
U7A U8C G9A U10C U11G C12U | 1.23
U7G G9U U10G U11G C13A | 1.22
U7C U8C G9U U10G U11G C12U C13A | 1.08
U7C U8G G9C U10A C12A | 1.2

Variant | aptazyme ON/OFF ratio
U7C U8C U10A U11G C12A C13G | 1.11
U7A G9U U10C U11G C12A | 1.02
U8G G9C U10G C12A C13G | 1.09
U7G U10A U11C | 1
U7G U10A U11G C12U C13A | 1.17
U7A G9A U10G U11C C12G C13A | 1.27
U7A U8C G9A U10C C12U C13G | 1.1
U7A U8C G9A U10C U11C C12U C13A | 1.05
U7A U10G U11G C12G C13G | 1.28
U7G G9U U10A U11A C13G | 1.18
U7G U8A G9U U10A U11A | 1.46
U7G U8G G9C U10C | 2.35
U7C G9A U10A U11A C13U | 1.16
U7C U11C C12A C13A | 1.27
U7C U8A G9U U10A C12U C13G | 1.16
U7G U8G U11G C12U C13A | 1.5
U7A U8A U10G U11C C13A | 1.17
U7C U8C U10A U11A C12U C13G | 1.28
U7A U8C G9A U11C C12G C13U | 1.16
U7G U10A U11G C13A | 1.16
U7C G9U U10G U11C C12U C13G | 1.05
U7A U8C U11A C12G | 1.16
G9C U10A U11A C12A C13G | 1.21
U7A G9U U11A C13U | 1.1

Variant | aptazyme ON/OFF ratio
U7G U8C G9U U10G C13G | 1.27
U7G G9U U10G U11G C12U C13U | 1.29
U8C G9C U10C U11C C12A C13A | 1.02
U7A U8C G9U U10G C12G C13A | 1.19
U7C U8G G9C U10C U11C | 1.04
U7C G9U U10A U11C | 1.06
U7A U8C G9U U11A C13A | 1.13
U7G U8C G9C U10A U11G C12A C13G | 1.12
U7A G9A U10A U11A C12A | 1.25
G9A U10G C12A C13G | 1.14
U8G U10G U11C C12G C13G | 1.1
U8G U10G C12U C13A | 1.3
U7G U8G G9A U11A C12G | 1.12
U7G U8C U10G U11A C12U C13U | 1.17
U7A U8G U10C U11A | 1.95
U8G G9C U10G C12U C13G | 1.11
U7A U8G G9C C12A | 1.78
U7C U10C U11G C12A C13G | 1.19
U7A U8G U10C C12G C13U | 1.28
U7A G9C U10C C13A | 1.01
U7G U8G G9C U11C C12U C13U | 1.26
U7A U8G U10A U11C C12U | 1.29
U7G U8G G9C U10G U11C C13A | 1.09
U7G U10C | 1.5

Variant | aptazyme ON/OFF ratio
U7C G9U U11C C12A | 1.26
U7G U8G G9A U10A C12G C13U | 1.22
U7C U8G G9A U11G C13A | 1.21
U7G U8C U10G U11A C13U | 1.19
U7A G9C U10G U11C | 1.03
U7G U10G U11G C12U C13G | 1.17
U8A G9C U11A | 1.21
U8C U10G U11G C12A C13G | 1.09
U7C U8A U10G U11G C13G | 1.12
U8G G9U U10A U11G C12A | 1.12
U7C U8G G9A U11A C12A C13A | 1.3
U7C U8A G9C U10C C12G | 1.03
U8C G9C U10C U11A C12A C13G | 1.05
U7G U8C U10C C12U C13U | 1.27
U8G G9U U11G C12A C13A | 1.14
U7C U8A G9C U10A U11G C12U C13A | 1.1
U7C U10G U11C C12U C13U | 1.27
U8C G9C U11G C12G | 1.19
U8C U10G U11C C12A C13A | 1.24
U7C U8C G9A U10A | 1.54
U7C G9A U10A U11G C12U C13G | 1.13
U7G U8C G9U U11G C12G C13A | 1.08
U7A G9C C12G C13U | 1.05
G9U C13G | 1.09

Variant | aptazyme ON/OFF ratio
U7G U8C G9U U10C C12A C13A | 1.49
U7A G9U U10A U11G C12G | 1.18
U7G U8G G9A U10G U11C C13A | 1.15
U7G G9C U10C U11G C12A C13G | 1.13
U7C U8C U10G U11G C13A | 1.24
U7C U8G U10G U11G C12A C13U | 1.26
U7G U8A U10A U11G C12G | 1.33
U7A U8C G9U U10G U11G C12U C13U | 1.16
U7G U8C G9A U10G U11A C12A C13G | 1.09
U7G G9C U11A C13U | 1.62
U8C G9A U10A | 1.78
U7C G9U U11A C12A C13A | 1.25
U7A G9A U10G C12U C13A | 1.06
U7A U8G G9C U10C C12G C13U | 1.46
U7G U8C G9U U10G C12A C13A | 1.37
U7G U8G U11G C13A | 1.21
U7A G9C U10G U11C C12A C13U | 1.06
U7A U8C G9A U10G C12G C13U | 1.31
U7A G9A U10A C13A | 1.26
U7C G9C U10C U11C C12U C13U | 1.01
U7G U8G G9A U11C C12A | 1.5
U7G G9U U10A U11C C12G C13G | 1.04
U8C G9U U10G U11A C13G | 1.13
U8C G9C U10G U11A C12A | 1.21

Variant | aptazyme ON/OFF ratio
U7C G9C U10A U11A C13A | 1.11
U8C G9A U11A C12G C13U | 1.23
U7G G9A U10A U11G C12U C13G | 1.09
U7G U8G G9A U10G U11G C12U | 1.43
U7A G9C U11G C12U C13A | 1.42
G9A U11C | 1.12
U7G G9C U10A U11C C13G | 1.09
U8C U10C U11G C12A C13A | 1.17
U7A U8G U10C U11A C12A C13A | 1.27
U7C U8G G9C U11C | 1.18
U7C U8G G9A U10C U11G C12G | 1.22
U8G G9C U11C C12U C13U | 1.04
U8G G9A U10G U11C C12G C13G | 1.25
U7C U8G U10A U11A C12A | 1.14
U7A U8A G9U U10A C13G | 1.08
U8A G9A U10A U11A C12A C13U | 1.27
U7C U8A U10A U11G C13A | 1.15
U7G U8A U10C U11C C12G C13U | 1.3
U7A U8G G9U U10A U11G C13U | 1.37
U7G U8C G9U U10C U11C | 1.32
U7C U8C G9A U10G U11C C12G C13U | 1.19
U7C G9A U10C U11A C12G C13G | 1.39
U7C U8C G9A U11C C13U | 1.29
